# Laboratory results published in publication PMC9207808 (ACS Chemical Biology, 2022).
# Several values for one entry are separate records, joined by “and”; a condition that tells them apart may be missing. Identical values can stand only once. Like-named read-outs stand apart in the source and are kept apart here. No end group written: not given here.
# B1: peptide 1 (Phd 52-73, Ac-WMDDEFAAIMAVHGNELRELADK-OH) (peptide)
# peptide: Ac-WMDDEFAAIMAVHGNELRELADK-OH
# notes: tryptophan introduced at the N-terminus for spectrophotometric quantification; not part of Phd; also called wild-type peptide 1; C-terminal Phd peptide; source: synthetic peptide
# Assays:
# [1] = target: Doc1-122–His6 (DocSTm toxin) (Salmonella typhimurium); assay: SPR; Biacore S200; Doc-His6 captured on a Series S NTA chip (200-400 RU); peptide as analyte, single-cycle kinetics, six concentrations (3-fold dilutions), 30 uL/min; 22 C; 10 mM HEPES, 500 mM NaCl, 50 uM EDTA, 0.005% TWEEN 20, pH 8.0; kinetic 1:1 fit
# [2] = target: Doc1-122–His6 (DocSTm toxin) (Salmonella typhimurium); assay: as above; remark: listed apart in the source
# [3] = target: Doc1-122–His6 (DocSTm toxin) (Salmonella typhimurium); assay: SPR; Biacore S200; Doc-His6 captured on NTA chip; peptide as analyte, multi-cycle experiments up to 500 nM; 22 C; 10 mM HEPES, 500 mM NaCl, 50 uM EDTA, 0.005% TWEEN 20, pH 8.0; steady-state 1:1 fit
# [4] = target: Doc1-122–His6 (DocSTm toxin) (Salmonella typhimurium); assay: as above; remark: listed apart in the source
# [5] = target: Doc1-122–His6 (DocSTm toxin) (Salmonella typhimurium); assay: SPR; Biacore S200; Doc-His6 captured on a Series S NTA chip (200-400 RU); peptide as analyte, single-cycle kinetics, six concentrations (3-fold dilutions), 30 uL/min; 22 C; 10 mM HEPES, 500 mM NaCl, 50 uM EDTA, 0.005% TWEEN 20, pH 8.0; kinetic 1:1 fit; remark: listed apart in the source
# [6] = target: Doc1-122–His6 (DocSTm toxin) (Salmonella typhimurium); assay: as above; remark: listed apart in the source
# [7] = target: Doc1-122–His6 (DocSTm toxin) (Salmonella typhimurium); assay: as above; remark: listed apart in the source
# [8] = target: Doc1-122–His6 (DocSTm toxin) (Salmonella typhimurium); assay: as above; remark: listed apart in the source
# [9] = target: Doc1-122–His6 (DocSTm toxin) (Salmonella typhimurium); assay: as above; remark: listed apart in the source
# [10] = target: Doc1-122–His6 (DocSTm toxin) (Salmonella typhimurium); assay: as above; remark: listed apart in the source
# [11] = target: Doc toxin of Salmonella enterica serovar Typhimurium (DocSTm) (Salmonella enterica serovar Typhimurium); assay: SPR; DocSTm immobilised on a Series S NTA chip (150 nM, 200-400 RU); analytes in single-cycle kinetics, typically six concentrations, kinetic 1:1 fit; 22 °C; 10 mM HEPES, 500 mM NaCl, 50 μM EDTA, 0.005% TWEEN 20, pH 8.0
# [12] = target: Doc1-122–His6 (DocSTm toxin) (Salmonella typhimurium); assay: SPR; Biacore S200; Doc-His6 captured on a Series S NTA chip (200-400 RU); peptide as analyte, single-cycle kinetics, six concentrations (3-fold dilutions), 30 uL/min; 22 C; 10 mM HEPES, 500 mM NaCl, 50 uM EDTA, 0.005% TWEEN 20, pH 8.0; kinetic 1:1 fit; remark: listed apart in the source
# [13] = target: Doc1-122–His6 (DocSTm toxin) (Salmonella typhimurium); assay: as above; remark: listed apart in the source
# [14] = target: Doc toxin of Salmonella enterica serovar Typhimurium (DocSTm) (Salmonella enterica serovar Typhimurium); assay: SPR; DocSTm immobilised on a Series S NTA chip; analytes in multicycle kinetics, kinetic and/or steady-state 1:1 fit (steady-state for peptide 14); 22 °C; 10 mM HEPES, 500 mM NaCl, 50 μM EDTA, 0.005% TWEEN 20, pH 8.0
# Doc = target: T1, Doc (Salmonella Typhimurium); assay: SPR
# T1 chain: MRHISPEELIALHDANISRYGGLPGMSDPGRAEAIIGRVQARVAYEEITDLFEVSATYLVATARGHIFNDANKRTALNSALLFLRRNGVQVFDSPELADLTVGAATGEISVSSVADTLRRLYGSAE
# [15] = target: T2, Doc toxin of Salmonella enterica serovar Typhimurium (DocSTm) (Salmonella enterica serovar Typhimurium, UniProt A0A1C9CWN5 1-126); assay: SPR; DocSTm immobilised on a Series S NTA chip (150 nM, 200-400 RU); analytes in single-cycle kinetics, typically six concentrations, kinetic 1:1 fit; 22 °C; 10 mM HEPES, 500 mM NaCl, 50 μM EDTA, 0.005% TWEEN 20, pH 8.0; conditions: both partners purified
# [16] = target: T2, Doc toxin of Salmonella enterica …; assay: differential scanning fluorimetry; DocSTm 5 μM with SYPRO Orange, 25 to 95 °C; 50 μM PhdSTm or peptide 1 (Figure 2a); 20 mM K2HPO4, 50 mM (NH4)2SO4, pH 8.0; shift of the melting temperature of DocSTm; conditions: both partners purified
molecule,measurement,setting,value
peptide 20 (PhdSTm52-71),Kd,[1],0.447 nM and 0.414 nM and 0.424 nM
same,koff,[1],0.000413 s⁻¹ and 0.000387 s⁻¹ and 0.000378 s⁻¹
same,kon,[1],925000 M⁻¹ s⁻¹ and 934000 M⁻¹ s⁻¹ and 891000 M⁻¹ s⁻¹
same,Kd,[2],0.428 nM
same,koff,[2],0.000393 s⁻¹
same,kon,[2],917000 M⁻¹ s⁻¹
peptide 7 (PhdSTm52-73-I59A),Kd,[3],25.4 nM and 19.4 nM and 15.1 nM
same,Kd,[4],19.9 nM
peptide 13 (PhdSTm52-73-E66A),Kd,[2],0.042 nM
same,koff,[2],0.000112 s⁻¹
same,kon,[2],2.7e+06 M⁻¹ s⁻¹
same,Kd,[5],0.0475 nM and 0.0451 nM and 0.0352 nM
same,koff,[5],7.15e-05 s⁻¹ and 0.000147 s⁻¹ and 0.000118 s⁻¹
same,kon,[5],1.5e+06 M⁻¹ s⁻¹ and 3.26e+06 M⁻¹ s⁻¹ and 3.35e+06 M⁻¹ s⁻¹
peptide 11 (PhdSTm52-73-G64A),Kd,[6],0.13 nM and 0.0743 nM and 0.0769 nM
same,koff,[6],1.42e-05 s⁻¹ and 2.28e-05 s⁻¹ and 2.23e-05 s⁻¹
same,kon,[6],1.08e+06 M⁻¹ s⁻¹ and 3.07e+06 M⁻¹ s⁻¹ and 2.9e+06 M⁻¹ s⁻¹
same,Kd,[2],0.084 nM
same,koff,[2],0.000197 s⁻¹
same,kon,[2],2.35e+06 M⁻¹ s⁻¹
peptide 16 (PhdSTm52-73-E69A),Kd,[2],0.065 nM
same,koff,[2],0.000136 s⁻¹
same,kon,[2],2.1e+06 M⁻¹ s⁻¹
same,Kd,[7],0.0687 nM and 0.0703 nM and 0.0518 nM
same,koff,[7],0.000151 s⁻¹ and 0.000169 s⁻¹ and 8.97e-05 s⁻¹
same,kon,[7],2.2e+06 M⁻¹ s⁻¹ and 2.37e+06 M⁻¹ s⁻¹ and 1.73e+06 M⁻¹ s⁻¹
peptide 17 (PhdSTm52-73-L70A),Kd,[8],2.1 nM and 1.98 nM and 1.02 nM
same,koff,[8],0.00602 s⁻¹ and 0.00634 s⁻¹ and 0.00554 s⁻¹
same,kon,[8],2.87e+06 M⁻¹ s⁻¹ and 3.2e+06 M⁻¹ s⁻¹ and 5.44e+06 M⁻¹ s⁻¹
same,koff,[2],0.00597 s⁻¹
same,kon,[2],3.84e+06 M⁻¹ s⁻¹
peptide 3 (PhdSTm52-73-D53A),Kd,[9],0.0121 nM and 0.0166 nM and 0.00992 nM
same,koff,[9],6.65e-05 s⁻¹ and 8.25e-05 s⁻¹ and 4.72e-05 s⁻¹
same,kon,[9],5.48e+06 M⁻¹ s⁻¹ and 4.98e+06 M⁻¹ s⁻¹ and 4.76e+06 M⁻¹ s⁻¹
same,koff,[2],6.5e-05 s⁻¹
same,kon,[2],5.07e+06 M⁻¹ s⁻¹
peptide 18 (PhdSTm52-73-D72A),Kd,[2],0.033 nM
same,koff,[2],8.4e-05 s⁻¹
same,kon,[2],2.51e+06 M⁻¹ s⁻¹
same,Kd,[10],0.0532 nM and 0.0189 nM and 0.0385 nM
same,koff,[10],7.43e-05 s⁻¹ and 5.67e-05 s⁻¹ and 0.00012 s⁻¹
same,kon,[10],1.4e+06 M⁻¹ s⁻¹ and 3.01e+06 M⁻¹ s⁻¹ and 3.12e+06 M⁻¹ s⁻¹
peptide 22 (Phd 55-71),Kd,[11],0.347 nM
peptide 14 (PhdSTm52-73-L67A),Kd,[3],25 nM and 23.9 nM and 15.4 nM
same,Kd,[4],21.4 nM
peptide 15 (PhdSTm52-73-R68A),Kd,[12],0.124 nM and 0.106 nM and 0.112 nM
same,koff,[12],0.000244 s⁻¹ and 0.000166 s⁻¹ and 0.000144 s⁻¹
same,kon,[12],1.95e+06 M⁻¹ s⁻¹ and 1.57e+06 M⁻¹ s⁻¹ and 1.29e+06 M⁻¹ s⁻¹
same,Kd,[2],0.115 nM
same,koff,[2],0.000185 s⁻¹
same,kon,[2],1.6e+06 M⁻¹ s⁻¹
peptide 10 (PhdSTm52-73-H63A),Kd,[3],12.2 nM and 13.1 nM and 40 nM
same,Kd,[4],21.8 nM
peptide 23 (Phd 56-70),Kd,[11],1.98 nM
peptide 2 (PhdSTm52-73-M52A),Kd,[2],0.052 nM
same,koff,[2],5.9e-05 s⁻¹
same,kon,[2],1.14e+06 M⁻¹ s⁻¹
same,Kd,[13],0.0523 nM and 0.0478 nM and 0.0551 nM
same,koff,[13],5.44e-05 s⁻¹ and 5.13e-05 s⁻¹ and 7.14e-05 s⁻¹
same,kon,[13],1.04e+06 M⁻¹ s⁻¹ and 1.07e+06 M⁻¹ s⁻¹ and 1.3e+06 M⁻¹ s⁻¹
Ac-WMDDEFAAAMAVHGNELRELADK [peptide 7 (Phd 52-73 I59A)],Kd,[14],20 nM
Ac-WMDDEFAAIMAVAGNELRELADK [peptide 10 (Phd 52-73 H63A)],Kd,[14],20 nM
Ac-WMDDEFAAIMAVHGNEARELADK [peptide 14 (Phd 52-73 L67A)],Kd,[14],20 nM
EFASLFDTLDSTNKELV [Phd peptide 22 55-71],Kd,Doc,0.347 nM
FASLFDTLDSTNKEL [Phd peptide 23 56-70],Kd,Doc,1.98 nM
AALDAEFASLFDTLDSTNKELVNR [Phd peptide 1 neutralization domain],Kd,Doc,0.073 nM
Ac-WMDDEFAAIMAVHGNELRELA-OH [peptide 20 (C-terminally truncated analogue of peptide 1)],fold loss in Kd against peptide 1,[15],~5 fold
Ac-EFAAIMAVHGNELRELADK-OH [peptide 21 (N-terminally truncated analogue of peptide 1)],fold loss in Kd against peptide 1,[15],~5 fold
B1,Kd,[15],0.073 nM
same,ΔTm of DocSTm (DSF),[16],28.8 ± 0.9 °C
